Square brackets hold non-standard residues; d marks the D form. Ends that are not written are not given here. * marks the point of attachment. pY = N[C@@H](Cc1ccc(OP(=O)(O)O)cc1)C(=O)O; Dansyl = CN(C)c1cccc2c(S(=O)(=O)*)cccc12
Legend:
Conditions in all cases: both partners purified
[1] = target: T1, SH2 domain of Crkl protein (residues 1-111), H80A variant (UniProt P46109 1-111, H80A); experiment: stopped-flow fluorescence kinetics (FRET); dansyl-Pax112-123 constant at 2 μM mixed with Crkl-SH2 2 to 10 μM (pseudo-first-order, kon); koff by displacement of the preincubated 2 µM complex with excess non-dansylated Pax112-123 (30 μM); 283 K; 50 mM sodium-acetate pH 5.0, 0.5 M NaCl
T1 construct: Crkl adaptor protein, SH2 domain, residues 1-111, His80 replaced by alanine; Site-directed mutant of m1 (QuikChange); source: E. coli BL21 (DE3), purified (HisTrap nickel column, desalting); not shown: His tag, N-terminal, kept

[2] = target: T2, SH2 domain of Crkl protein (residues 1-111), H33A variant (UniProt P46109 1-111, H33A); experiment: as above
T2 construct: Crkl adaptor protein, SH2 domain, residues 1-111, His33 replaced by alanine; Site-directed mutant of m1 (QuikChange); source: E. coli BL21 (DE3), purified (HisTrap nickel column, desalting); not shown: His tag, N-terminal, kept

[3] = target: T3, SH2 domain of Crkl protein (residues 1-111), wild type (UniProt P46109 1-111); experiment: as above
T3 construct: Crkl adaptor protein, SH2 domain, residues 1-111; Subcloned in pET28b+; all experiments were done on the N-terminally His-tagged protein; also called Crkl-SH2; Crkl SH2 domain; source: E. coli BL21 (DE3), purified (HisTrap nickel column, desalting); not shown: His tag, N-terminal, kept

[4] = target: T4, SH2 domain of Crkl protein (residues 1-111), H91A variant (UniProt P46109 1-111, H91A); experiment: stopped-flow fluorescence kinetics (FRET); dansyl-Pax112-123 constant at 2 μM mixed with Crkl-SH2 2 to 10 μM (pseudo-first-order, kon); koff by displacement of the preincubated 2 µM complex with excess non-dansylated Pax112-123 (30 μM); 283 K; 50 mM BisTRIS pH 6.0, 0.5 M NaCl
T4 construct: Crkl adaptor protein, SH2 domain, residues 1-111, His91 replaced by alanine; Site-directed mutant of m1 (QuikChange); source: E. coli BL21 (DE3), purified (HisTrap nickel column, desalting); not shown: His tag, N-terminal, kept

[5] = target: T1, SH2 domain of Crkl protein (residues …); experiment: as above
[6] = target: T2, SH2 domain of Crkl protein (residues …); experiment: as above
[7] = target: T3, SH2 domain of Crkl protein (residues …); experiment: as above
[8] = target: T4, SH2 domain of Crkl protein (residues …); experiment: stopped-flow fluorescence kinetics (FRET); dansyl-Pax112-123 constant at 2 μM mixed with Crkl-SH2 2 to 10 μM (pseudo-first-order, kon); koff by displacement of the preincubated 2 µM complex with excess non-dansylated Pax112-123 (30 μM); 283 K; 50 mM TrisHCl pH 9.0, 0.5 M NaCl
[9] = target: T1, SH2 domain of Crkl protein (residues …); experiment: as above
[10] = target: T2, SH2 domain of Crkl protein (residues …); experiment: as above

T2 sequence (P46109 1-111 H33A): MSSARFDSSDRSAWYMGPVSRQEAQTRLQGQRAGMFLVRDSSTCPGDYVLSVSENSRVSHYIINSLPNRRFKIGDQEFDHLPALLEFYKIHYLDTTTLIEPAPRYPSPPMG
T3 sequence (P46109 1-111): as the sequence (P46109 1-111 H33A) above, with A33H counted along it
T1 sequence (P46109 1-111 H80A): as the sequence (P46109 1-111 H33A) above, with A33H, H80A counted along it
T4 sequence (P46109 1-111 H91A): as the sequence (P46109 1-111 H33A) above, with A33H, H91A counted along it

Kd [1]: 11.5 ± 1.2 µM | koff [1]: 52.7 ± 3.2 s⁻¹ | kon [1]: 4.6e+06 ± 400000 M⁻¹ s⁻¹ | Kd [2]: 7.6 ± 0.7 µM | koff [2]: 33.2 ± 1.4 s⁻¹ | kon [2]: 4.4e+06 ± 300000 M⁻¹ s⁻¹ | Kd [3]: 9.5 ± 1.7 µM | koff [3]: 49.1 ± 1.7 s⁻¹ | kon [3]: 5.2e+06 ± 900000 M⁻¹ s⁻¹ | Kd [4]: 3 ± 0.1 µM | koff [4]: 20 ± 0.3 s⁻¹ | kon [4]: 6.6e+06 ± 200000 M⁻¹ s⁻¹ | Kd [5]: 3.2 ± 0.1 µM | koff [5]: 19.6 ± 0.3 s⁻¹ | kon [5]: 6.1e+06 ± 300000 M⁻¹ s⁻¹ | Kd [6]: 3.3 ± 0.2 µM | koff [6]: 19.5 ± 0.4 s⁻¹ | kon [6]: 5.9e+06 ± 300000 M⁻¹ s⁻¹ | Kd [7]: 2.6 ± 0.2 µM | koff [7]: 20.8 ± 0.3 s⁻¹ | kon [7]: 7.9e+06 ± 600000 M⁻¹ s⁻¹ | Kd [8]: 2.9 ± 0.1 µM | koff [8]: 36.4 ± 0.5 s⁻¹ | kon [8]: 1.27e+07 ± 500000 M⁻¹ s⁻¹ | Kd [9]: 2.8 ± 0.3 µM | koff [9]: 34 ± 2.3 s⁻¹ | kon [9]: 1.2e+07 ± 900000 M⁻¹ s⁻¹ | Kd [10]: 4.2 ± 0.5 µM | koff [10]: 44.7 ± 4 s⁻¹ | kon [10]: 1.06e+07 ± 1e+06 M⁻¹ s⁻¹
B1: dansylated Pax_(112–123) peptide (Dans-GEEEHV-pY-SFPNK) (peptide)
peptide: Dansyl-GEEEHV[pY]SFPNK
notes: The dansyl group is the FRET acceptor of Trp14 of the SH2 domain; source: synthetic peptide, bought: GenScript

Reference: publication PMC9332313, “Folding and Binding Mechanisms of the SH2 Domain from Crkl” (Biomolecules, 2022)
